This is an account of results in publication PMC4388176.

The data set deals with T1, Reb1 (146-504) (Schizosaccharomyces pombe, UniProt Q9P6H9).
T1 sequence: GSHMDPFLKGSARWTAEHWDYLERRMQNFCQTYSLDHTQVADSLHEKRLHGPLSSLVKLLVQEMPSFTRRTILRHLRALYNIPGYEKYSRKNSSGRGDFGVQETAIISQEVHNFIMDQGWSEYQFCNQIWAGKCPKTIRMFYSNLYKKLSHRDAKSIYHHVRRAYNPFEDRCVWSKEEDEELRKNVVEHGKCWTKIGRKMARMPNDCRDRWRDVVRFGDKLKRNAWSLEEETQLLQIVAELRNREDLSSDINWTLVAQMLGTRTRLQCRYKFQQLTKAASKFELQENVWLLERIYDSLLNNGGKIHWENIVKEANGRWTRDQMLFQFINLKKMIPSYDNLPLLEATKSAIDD
Description: X-ray crystallography.

B1: Ter3 26-mer (crystal) (dsDNA)
DNA 1: GTAAAAGGTAAGGGTAATGCACTTTT
DNA 2: CAAAAGTGCATTACCCTTACCTTTTA
For the molecule B1, the binding result was “binds”.
